The results in this text go back to PMC5668364, “Structure and functional dynamics of the mitochondrial Fe/S cluster synthesis complex” (Nature Communications, 2017).

Where two headings read alike, the source gives them in different places.

B2: Chaetomium thermophilum CtNfs1 (enzyme)
chain: MANLAPSVLRQASRLATRSSSSTSSLFAAAPRRAATLLSRRAAIAPATHAHPSRRASRSYVTDTKADNAQAQTEAAVRLDSQELEKAEKSVPSFEAQNGSTTHVSPMADILKGATRMGEGQRPIYLDMQATTPVDPRVLDAMLPYYVGIFGNPHSRTHAYGWETERAVEKAREHIAALIGADPKEIIFTSGATESNNMSIKGVARFFGRTGKKRHIITSQTEHKCVLDSCRHLQDEGYEVTYLPVNNKGLINLDELRDAIRPDTALVSIMAVNNEIGVIQPIAEIGKICREKKVFFHTDGAQAVGKIPIDVNAMNIDLMSISSHKIYGPKGIGACYVRRRPRVRIEPIISGGGQERGLRSGTLAPALVVGFGEACRIAKEELEYDLKHVKRLSERLLKGVLSIECTHQNGDPENGYPGCVNVSFAYVEGESLLMALNDVALSSGSACTSASLEPSYVLRALGNSDENAHSSIRFGIGRFTTEAEIDYVVKAVQDRVGFLRELSPLWELVQEGVDLNTIEWTQH

The target in data set [1] is human NFS1 of the NFS1-ISD11(-His10) complex for biochemistry and SAXS (human). Nature of the data set: SAXS; (NIA)2 complexes incubated with cysteine (buffer S1 with 5 mM Cys: 35 mM Tris-HCl pH 7.4, 150 mM NaCl), after size exclusion chromatography.
In data set [2] the target is B2. Kind of data set: SAXS; complexes of NFS1 with ISCU, FDX2 (reduced with dithionite) and/or frataxin mixed in 1:1, 1:1:1 ratios in buffer S1 in an anaerobic chamber, after size exclusion chromatography; rigid body modelling. (In gel filtration, larger molecules generally elute earlier.)
The target in a further data set is T1, human ISD11-His10 (human, UniProt Q9HD34 1-91).
T1 construct: human ISD11 (LYRM4); source: E. coli, co-expressed with NFS1, purified (Ni-Sepharose, gel filtration)
T1 sequence (Q9HD34 whole entry): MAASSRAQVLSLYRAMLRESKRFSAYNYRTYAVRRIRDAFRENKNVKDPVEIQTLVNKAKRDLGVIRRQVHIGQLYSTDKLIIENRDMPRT
Nature of the data set: affinity purification with mass spectrometry; NFS1-ISD11(-His10) purified by Ni-Sepharose and gel filtration from E. coli grown in TB (energy-rich) medium; Orbitrap mass spectrometry of the trypsin-digested purified solution. The note with it: partners not purified.

The target in data set [3] is T2, human ISD11, full length, no tag (human, UniProt Q9HD34 1-91).
T2 construct: human ISD11 (LYRM4), full length, plasmid pZM4; also called LYRM4; I of (NIA)2 and (NIAU)2; source: E. coli One Shot BL21 Star (DE3), co-expressed with NFS1, co-purified (Ni-NTA)
T2 sequence (Q9HD34 whole entry): as above
Kind of data set: crystal structure; (NIA)2 complex, 2.75 Å, space group R32; crystals from 100 mM MES pH 6.5, 0.3 M ammonium acetate, 20 mM calcium acetate, 20 mM CaCl2, 19% isopropanol, 12 °C. The note with it: both partners purified.

Data set [4] concerns the molecule itself. Nature of the data set: SAXS; (NIA)2 complexes incubated with cysteine (buffer S1 with 5 mM Cys: 35 mM Tris-HCl pH 7.4, 150 mM NaCl), after size exclusion chromatography.

Usually stoichiometry N stands for the number of molecules, sites or subunits per partner or assembly. “human NFS1 of the NFS1-ISD11(-His10) complex for biochemistry and SAXS (enzyme)”: the stoichiometry N in data set [1] was determined as 2. Consider “Chaetomium thermophilum CtFdx2 (reduced ferredoxin) (natural protein)”, for which the stoichiometry N in data set [2] came out at 1.

B1: E. coli acyl carrier protein (ACP) (natural protein, UniProt P0A6A8 1-78, looked up)
chain: MSTIEERVKKIIGEQLGVKQEEVTNNASFVEDLGADSLDTVELVMALEEEFDTEIPDEEAEKITTVQAAIDYINGHQA
modifications: Ser36-linked phosphopantetheine with attached fatty acyl chain (12 carbons modelled; 14 carbons by mass spectrometry of dissolved crystals)
notes: E. coli acyl carrier protein; the acyl chain length is said to depend on the growth medium; also called E. coli ACP; A of (NIA)2; source: endogenous E. coli protein, co-purified with NFS1-ISD11 expressed in E. coli
Turning to B1, the binding result (with human ISD11-His10; in data set [3]) was “binds” in each case. Regarding B2, the “stoichiometry N” value in data set [4] was 2.

B3: Chaetomium thermophilum CtIsu1-His6 (natural protein)
chain: MFSKTARAVSSRALASPLWSTAIPVTRPLSCQLAWPQTRQYHEKVLDHYSRPRNVGSLDKTDKSVGEGLVGAPACGDVMRLHIKVDPETKVISDVRFKTFGCGSAIASSSYLTELVRGMTLEQAAQVKNTQIAKELCLPPVKLHCSMLAEDAIKSAINNYYKKNPEARPTNLAGRGNNKLETASQSTQ
For the molecule B3, the “stoichiometry N” value in data set [2] (both partners purified) stood at 1.
